Source: patent publication US20250122242A1 (WISCONSIN ALUMNI RESEARCH FOUNDATION, published 2025)

T1: hIAPP-T7n (human islet amyloid polypeptide fused through a GGSGG linker to the N-terminal half of split T7 … (human))
T1 chain: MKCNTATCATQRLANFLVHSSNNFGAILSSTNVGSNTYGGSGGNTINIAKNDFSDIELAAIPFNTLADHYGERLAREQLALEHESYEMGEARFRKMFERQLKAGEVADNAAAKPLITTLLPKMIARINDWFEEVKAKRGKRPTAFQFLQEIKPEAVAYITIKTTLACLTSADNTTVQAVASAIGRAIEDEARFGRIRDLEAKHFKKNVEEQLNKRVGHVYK


Assays:
[1] = biological target: Aβ42-T7n (amyloid-β42 fused through a GGSGG linker to the N-terminal half of split T7 RNA polymerase); assay: cell-based or functional assay
[2] = biological target: T1, hIAPP-T7n (human islet amyloid …); assay: cell-based or functional assay

Binder	propagation of clonal SP on hIAPP against Aβ42 selection cells [2] [fold]	further results
cyclo(CKVWQLL) (not fully specified; printed as cyclo-CKVWQLL) [cyclo-CKVWQLL (SEQ ID NO:30) encoded on parent selection phage as SICLOPPS precursor]		fold phage propagation on E. coli encoding the Aβ42-T7n selection, against SP carrying scrambled control cyclo-CVQWLKL [1]: ~500 fold
cyclo(CKVWQLL) (not fully specified; printed as cyclo-CKVWQLL)		fold phage propagation on E. coli encoding the Aβ42-T7n selection, against scrambled control [1]: ~300 fold
cyclo(CRCVFSG) (not fully specified; printed as cyclo-CRCVFSG; cysteine pairing not given here) [cyclo-CRCVFSG (SEQ ID NO:69) encoded on selection phage as SICLOPPS precursor]	~10	
cyclo(CDLGVFR) (not fully specified; printed as cyclo-CDLGVFR) [cyclo-CDLGVFR (SEQ ID NO:68) encoded on selection phage as SICLOPPS precursor]	~1000	
